In paper PMC4771821, “Structural and spectroscopic characterisation of a heme peroxidase from sorghum” (Journal of Biological Inorganic Chemistry, 2015):

Substrate: COc1ccccc1O
Assay: purified protein
Type: biochemical, Sorghum bicolor
Conditions: heme; Ca2+ raises activity

B1: SK 5912 sorghum peroxidase (cationic class III peroxidase) (Sorghum bicolor) (protein)
chain: ARQPPLAPGLSFDFYKRSCPKAESIVRSFVQDAVRRDVGLAAGLLRLHFHDCFVQGCDASVLLDGSATGPGEQQAPPNLTLRPTAFKAINDIHDRLHKECGGTVVSCSDVLALAARDSVVVSGGPSYKVPLGRRDSASFATQQDVLSGLPPPTAAVPALLAVLSKINLDATDLVALSGGHTIGLGHCTSFEDRLFPRPDPTLNATFAGQLRRTCPAKGTDRRTPLDVRTPNAFDNKYYVNLVNREGLFTSDQDLFSNARTRALVDKFARSQRDFFDQFAFSVVKMGQIKVLTGTQGQIRTNCSARNAAGTTMLPWSVSVVEEAADESLGVF
notes: native enzyme isolated from grain
For B1, the Km was 1600 ± 400 µM.
